Measurements from patent publication US20050239064A1 (published 2005).
One block for each binder: values may come before it.

Tests used:
[1] = target: T1, truncated Mam protein (carboxy-terminal 32 amino acids of full-length Drosophila Mastermind deleted) fused to … (Drosophila, UniProt P21519 1-1562); experiment: yeast two-hybrid, lacZ reporter
T1 construct: also called truncated Mam fusion protein
Source text: FIG. 13 is a graph showing Mam-Mip complex driven transcription in a two-hybrid analysis in yeast. The yeast strain EGY48 was co-transformed with a plasmid encoding a Mam-Gal4 DNA binding domain fusion protein and either a plasmid encoding Mip1, Mip30 or Mip6 fused to the E. coli B42 transactivation domain, or a control plasmid (pJG4-5). The DNA binding domain was derived from plasmid pEG202. […] In the presence of glucose, the expression of Mam is repressed and only a very low level of β-galactosidase activity is detected. In the presence of galactose, the expression of Mam is induced and a large increase in β-galactosidase activity is observed with those proteins that interact with Mam. Extracts were prepared and activity measured from equal number of cells.
To elucidate the function of Mam and its role in Notch signaling, proteins with which Mam interacts were identified. Complementary DNA encoding a truncated Mam protein, in which the carboxy-terminal 32 amino acids of full-length Mam were deleted, was fused to the Gal4 DNA-binding domain encoded by the yeast expression vector pEG202. A truncated Mam fusion protein was used because it elicited a lower autonomous transactivational response from yeast reporter genes than full-length Mam. […]

[2] = target: T2, Drosophila Mastermind (Mam) tagged at its amino terminus with the Flag epitope, expressed from pcDNA3 in 293T … (Drosophila, UniProt P21519 1-1594); experiment: co-expression in 293T cells, indirect immunofluorescence
T2 construct: Expressed inside transfected human 293T cells
Source text: Mastermind and the entire intracellular domain of Drosophila Notch were co-expressed from pcDNA3 vectors (obtained from Invitrogen, Carlsbad, Calif.). Intracellular Notch was visualized with the 9C6 monoclonal antibody (Rebay, 1983, Thesis, Yale University) and a Cy-2-conjugated goat anti-mouse IgG secondary antibody. Flag epitope-tagged Mam was visualized with an anti-Flag polyclonal antibody and a Cy-5-conjugated goat anti-rabbit secondary antibody. Nuclei were counterstained with DAPI. In the absence of Mam, intracellular Notch is homogeneously distributed throughout the nucleoplasm; however, when co-expressed with Mam, intracellular Notch accumulates in nuclear bodies.

T1 sequence (P21519 other isoform, or with tags, fused parts or gaps limits assumed): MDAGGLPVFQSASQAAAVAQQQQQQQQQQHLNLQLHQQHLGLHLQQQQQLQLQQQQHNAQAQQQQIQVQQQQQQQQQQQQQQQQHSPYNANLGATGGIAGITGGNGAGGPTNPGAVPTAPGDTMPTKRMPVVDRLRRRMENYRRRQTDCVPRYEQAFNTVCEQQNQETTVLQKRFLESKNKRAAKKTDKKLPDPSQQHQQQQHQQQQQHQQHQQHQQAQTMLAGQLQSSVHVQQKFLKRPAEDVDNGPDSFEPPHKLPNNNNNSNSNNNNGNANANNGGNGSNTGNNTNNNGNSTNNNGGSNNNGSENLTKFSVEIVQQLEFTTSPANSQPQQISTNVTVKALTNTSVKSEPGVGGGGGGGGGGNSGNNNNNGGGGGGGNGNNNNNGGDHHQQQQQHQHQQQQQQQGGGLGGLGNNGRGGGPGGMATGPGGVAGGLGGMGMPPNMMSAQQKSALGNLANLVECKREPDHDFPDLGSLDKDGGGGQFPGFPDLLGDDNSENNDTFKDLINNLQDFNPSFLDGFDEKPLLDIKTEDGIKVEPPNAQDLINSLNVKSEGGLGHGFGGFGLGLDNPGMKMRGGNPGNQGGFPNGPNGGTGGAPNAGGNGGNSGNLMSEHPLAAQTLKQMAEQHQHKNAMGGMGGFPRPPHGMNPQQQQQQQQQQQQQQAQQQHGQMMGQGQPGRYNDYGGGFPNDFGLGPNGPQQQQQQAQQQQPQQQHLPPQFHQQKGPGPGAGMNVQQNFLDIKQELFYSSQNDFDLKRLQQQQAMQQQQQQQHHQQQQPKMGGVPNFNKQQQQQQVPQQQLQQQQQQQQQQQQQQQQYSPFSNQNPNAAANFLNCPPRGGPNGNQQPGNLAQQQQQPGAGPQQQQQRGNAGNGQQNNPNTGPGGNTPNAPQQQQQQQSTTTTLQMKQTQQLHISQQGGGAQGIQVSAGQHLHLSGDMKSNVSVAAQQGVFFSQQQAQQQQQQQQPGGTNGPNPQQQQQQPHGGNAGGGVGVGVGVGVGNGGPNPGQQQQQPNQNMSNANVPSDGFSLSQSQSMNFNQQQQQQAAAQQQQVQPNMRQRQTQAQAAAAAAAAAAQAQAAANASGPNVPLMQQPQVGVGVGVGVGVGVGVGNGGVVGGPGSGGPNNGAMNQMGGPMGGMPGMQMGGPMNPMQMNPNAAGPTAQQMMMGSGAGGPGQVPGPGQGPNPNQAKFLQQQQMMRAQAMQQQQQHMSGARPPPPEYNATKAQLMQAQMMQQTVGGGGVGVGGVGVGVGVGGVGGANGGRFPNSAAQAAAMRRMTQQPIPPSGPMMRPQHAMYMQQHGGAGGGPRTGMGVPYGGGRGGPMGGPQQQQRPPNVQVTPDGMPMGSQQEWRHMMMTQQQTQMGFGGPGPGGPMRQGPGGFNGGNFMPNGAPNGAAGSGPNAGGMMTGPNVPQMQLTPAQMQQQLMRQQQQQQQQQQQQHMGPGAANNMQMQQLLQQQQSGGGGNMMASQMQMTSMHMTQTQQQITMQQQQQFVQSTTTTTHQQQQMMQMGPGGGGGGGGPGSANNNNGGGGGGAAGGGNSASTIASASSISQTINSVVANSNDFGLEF
T2 sequence (P21519 other isoform, or with tags, fused parts or gaps): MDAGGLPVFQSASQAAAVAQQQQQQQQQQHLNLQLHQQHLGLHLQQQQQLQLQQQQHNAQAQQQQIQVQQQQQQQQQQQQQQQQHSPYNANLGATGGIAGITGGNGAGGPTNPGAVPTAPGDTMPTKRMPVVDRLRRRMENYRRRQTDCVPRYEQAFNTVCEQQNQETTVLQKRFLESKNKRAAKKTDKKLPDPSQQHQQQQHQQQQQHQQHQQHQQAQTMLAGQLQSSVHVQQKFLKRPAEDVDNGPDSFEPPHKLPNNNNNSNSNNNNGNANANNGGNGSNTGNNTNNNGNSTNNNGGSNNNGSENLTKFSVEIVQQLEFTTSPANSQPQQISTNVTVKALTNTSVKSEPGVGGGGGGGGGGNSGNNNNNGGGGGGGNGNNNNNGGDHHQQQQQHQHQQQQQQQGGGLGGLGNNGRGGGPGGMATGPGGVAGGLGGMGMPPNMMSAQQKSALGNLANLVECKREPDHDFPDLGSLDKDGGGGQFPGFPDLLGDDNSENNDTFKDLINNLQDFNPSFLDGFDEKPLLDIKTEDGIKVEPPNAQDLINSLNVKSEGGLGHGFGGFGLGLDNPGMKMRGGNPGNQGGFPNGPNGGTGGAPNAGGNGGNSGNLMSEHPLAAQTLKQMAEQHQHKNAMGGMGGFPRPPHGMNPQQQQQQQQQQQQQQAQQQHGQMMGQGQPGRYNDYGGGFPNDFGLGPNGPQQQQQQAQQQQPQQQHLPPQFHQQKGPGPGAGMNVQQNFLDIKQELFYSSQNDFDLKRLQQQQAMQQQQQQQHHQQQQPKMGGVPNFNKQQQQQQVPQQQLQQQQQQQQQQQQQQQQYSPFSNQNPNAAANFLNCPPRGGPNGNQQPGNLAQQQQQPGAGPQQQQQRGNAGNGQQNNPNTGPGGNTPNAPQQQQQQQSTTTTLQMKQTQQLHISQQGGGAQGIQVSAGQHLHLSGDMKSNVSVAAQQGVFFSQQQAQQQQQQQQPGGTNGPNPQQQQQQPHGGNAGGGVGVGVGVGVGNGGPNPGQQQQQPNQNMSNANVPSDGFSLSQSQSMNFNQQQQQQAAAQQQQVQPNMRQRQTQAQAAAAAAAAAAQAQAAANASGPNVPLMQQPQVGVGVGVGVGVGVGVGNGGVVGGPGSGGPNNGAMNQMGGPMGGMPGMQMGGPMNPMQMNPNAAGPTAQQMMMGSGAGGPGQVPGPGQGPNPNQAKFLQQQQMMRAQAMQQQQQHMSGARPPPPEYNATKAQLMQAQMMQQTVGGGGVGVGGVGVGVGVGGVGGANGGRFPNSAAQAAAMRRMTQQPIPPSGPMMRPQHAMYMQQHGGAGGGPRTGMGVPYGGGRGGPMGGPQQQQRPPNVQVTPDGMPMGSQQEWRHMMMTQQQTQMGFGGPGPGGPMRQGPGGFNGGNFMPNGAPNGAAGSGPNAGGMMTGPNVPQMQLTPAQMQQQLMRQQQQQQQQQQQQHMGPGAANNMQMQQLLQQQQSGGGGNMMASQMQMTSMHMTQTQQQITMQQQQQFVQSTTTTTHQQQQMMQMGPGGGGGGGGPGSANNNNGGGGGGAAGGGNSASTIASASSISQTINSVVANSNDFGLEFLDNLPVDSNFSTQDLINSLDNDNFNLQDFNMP

binding result [1]: binds
B1: Mip6 two-hybrid clone, amino-terminally truncated, fused to the E. coli B42 transactivation domain encoded by pJG4-5 (other, not shown: large carriers)
chain: PKTKQSTFVVSPKPEPKSPAVAFLQPSIPLRSSNQPQTVVGSSSTGRKPLNVGLTMEWTKKKFFSAASGIPQRRQNQIKQPYANIVSPIRTYTQKSGTAPLMSTFRPTSSDMLSTLAISELEQESRLCHPKALFATKDETPKSSEAESLIINGIDSAADLLPKKAYISSEIKHVVDERTPLPMPKVPQIQKYLNSAVEPTVMRHDGKMKMPGEAVRNPSSSHIPRRANHSLADLSLASGDVSLYTIRDAQKF

binding result [2]: binds
B2: entire intracellular domain of Drosophila Notch, expressed from pcDNA3 in 293T cells (receptor, UniProt P07207 1767-2703, looked up)
chain: QRKRAHGVTWFPEGFRAPAAVMSRRRRDPHGQEMRNLNKQVAMQSQGVGQPGAHWSDDESDMPLPKRQRSDPVSGVGLGNNGGYASDHTMVSEYEEADQRVWSQAHLDVVDVRAIMTPPAHQDGGKHDVDARGPCGLTPLMIAAVRGGGLDTGEDIENNEDSTAQVISDLLAQGAELNATMDKTGETSLHLAARFARADAAKRLLDAGADANCQDNTGRTPLHAAVAADAMGVFQILLRNRATNLNARMHDGTTPLILAARLAIEGMVEDLITADADINAADNSGKTALHWAAAVNNTEAVNILLMHHANRDAQDDKDETPLFLAAREGSYEACKALLDNFANREITDHMDRLPRDVASERLHHDIVRLLDEHVPRSPQMLSMTPQAMIGSPPPGQQQPQLITQPTVISAGNGGNNGNGNASGKQSNQTAKQKAAKKAKLIEGSPDNGLDATGSLRRKASSKKTSAASKKAANLNGLNPGQLTGGVSGVPGVPPTNSAAQAAAAAAAAVAAMSHELEGSPVGVGMGGNLPSPYDTSSMYSNAMAAPLANGNPNTGAKQPPSYEDCIKNAQSMQSLQGNGLDMIKLDNYAYSMGSPFQQELLNGQGLGMNGNGQRNGVGPGVLPGGLCGMGGLSGAGNGNSHEQGLSPPYSNQSPPHSVQSSLALSPHAYLGSPSPAKSRPSLPTSPTHIQAMRHATQQKQFGGSNLNSLLGGANGGGVVGGGGGGGGGVGQGPQNSPVSLGIISPTGSDMGIMLAPPQSSKNSAIMQTISPQQQQQQQQQQQQQHQQQQQQQQQQQQQQQQQLGGLEFGSAGLDLNGFCGSPDSFHSGQMNPPSIQSSMSGSSPSTNMLSPSSQHNQQAFYQYLTPSSQHSGGHTPQHLVQTLDSYPTPSPESPGHWSSSSPRSNSDWSEGVQSPAANNLYISGGHQANKGSEAIYI
notes: domain: entire intracellular domain; also called intracellular Notch
